For experiment [1], the target named is T1, NCA expressed at the surface of MC38/NCA+ cells and granulocytes (UniProt P40199 35-320, limits assumed).
T1 construct: whole, on cells
T1 sequence (looked up): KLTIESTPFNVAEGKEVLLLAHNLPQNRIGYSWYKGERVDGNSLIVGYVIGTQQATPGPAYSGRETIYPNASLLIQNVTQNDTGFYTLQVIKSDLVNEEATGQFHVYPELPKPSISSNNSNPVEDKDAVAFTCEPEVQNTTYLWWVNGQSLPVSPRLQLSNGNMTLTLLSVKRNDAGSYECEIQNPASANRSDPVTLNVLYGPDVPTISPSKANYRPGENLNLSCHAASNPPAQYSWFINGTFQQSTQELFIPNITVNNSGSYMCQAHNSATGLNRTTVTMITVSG
In words: FACS on cells, detection by 9E10 anti-c-myc then anti-mouse IgG-FITC. How it is done:
At each step, the samples are incubated for 45 min, 4° C., in the dark. Between each reaction, a washing is carried out with 2 ml of PBS/1% BSA. At the last step, the cells are taken up with 0.5 ml of PBS.

Experiment [2] concerns the target T2, extracellular region of the human recombinant carcinoembryonary antigen (CEA) (human, UniProt P06731 35-676, limits assumed).
T2 construct: extracellular domain; The Biacore paragraph says only 'CEA'; also called rhCEA
T2 sequence (looked up): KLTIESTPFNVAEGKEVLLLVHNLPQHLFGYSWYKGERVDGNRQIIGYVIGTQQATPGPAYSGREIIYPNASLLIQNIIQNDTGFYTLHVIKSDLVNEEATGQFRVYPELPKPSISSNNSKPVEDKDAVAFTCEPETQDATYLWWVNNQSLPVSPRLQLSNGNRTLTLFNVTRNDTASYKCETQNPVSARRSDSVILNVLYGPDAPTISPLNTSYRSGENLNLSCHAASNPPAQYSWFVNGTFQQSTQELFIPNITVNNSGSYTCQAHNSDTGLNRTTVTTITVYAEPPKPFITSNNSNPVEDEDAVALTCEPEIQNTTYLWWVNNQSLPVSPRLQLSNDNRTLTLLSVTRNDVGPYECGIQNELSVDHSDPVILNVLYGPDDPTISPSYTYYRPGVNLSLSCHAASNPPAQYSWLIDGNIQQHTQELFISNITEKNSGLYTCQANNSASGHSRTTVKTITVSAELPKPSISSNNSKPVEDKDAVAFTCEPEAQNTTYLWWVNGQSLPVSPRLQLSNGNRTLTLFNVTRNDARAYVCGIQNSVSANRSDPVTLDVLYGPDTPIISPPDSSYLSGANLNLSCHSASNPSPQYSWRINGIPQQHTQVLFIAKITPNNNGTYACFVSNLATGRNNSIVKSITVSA
In words: SPR, BIACORE 3000; VHH captured on immobilised anti-c-myc mAb 9E10, CEA injected. As to the method: The VHH (in buffer: 10 mM HEPES; 150 mM NaCl; 3 mM EDTA; 0.005% surfactant P20) is then injected and then a range of CEA or CD16 is injected on the VHH immobilised on the 9E10.

Experiment [3] has as its target T1, NCA expressed at the surface of …. In words: FACS on MC38/NCA+ cells and granulocytes.
Experiment [4] addresses extracellular region of human recombinant (CD16B) receptor FcγRIIIB (human) (UniProt O75015). In words: SPR, BIACORE 3000; VHH captured on immobilised anti-c-myc mAb 9E10, CD16 injected.

The source of these data is patent publication US20160083476A1 (CENTRE NATIONAL DE LA RECHERCHE SCIENTIFIQUE CNRS, published 2016).

Sequence of extracellular region of human recombinant (CD16B) receptor FcγRIIIB (human) (O75015 17-200 limits assumed): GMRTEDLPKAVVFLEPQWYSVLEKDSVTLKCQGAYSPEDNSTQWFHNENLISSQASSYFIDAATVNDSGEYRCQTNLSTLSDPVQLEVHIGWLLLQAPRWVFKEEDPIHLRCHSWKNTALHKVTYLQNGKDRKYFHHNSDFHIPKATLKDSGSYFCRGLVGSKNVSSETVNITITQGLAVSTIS

B1: Anti-CEA 17 VHH (VHH)
VHH: EVQLVESGGGFVQAGESLTLSCTSSTLTFTPYRMAWYRQAPGKQRDLVADISSGDGRTTNYADFAKGRFTISRDNIKNTVFLRMTNLKPEDTAVYYCNTFVSFVGIARSWGQGTQVTVSS
notes: also called VHH CEA 17; anti-CEA VHH clone 17
Consider B1, for which the binding result in experiment [1] is given as “no binding”.

B2: Anti-CEA 3 VHH (VHH)
VHH: EVQLVESGGGLVQAGGSLRLSCTSSTVTFTPYQMGWYRQAPGKQRALVADISTGGSRTNYADFAKGRFTISRDDVKNTVYLQMNNLKPEDTAVYYCNTYYAMIGHARNWGQGTQVTVSS
notes: Purified from E. coli periplasm; c-myc tag recognised by mAb 9E10; also called anti-CEA VHH clone 3
Take B2: in experiment [2], the Ka was 7.38e+07 M⁻¹, the dissociation constant Kd worked out at 13.6 nM, the koff is 0.00168 s⁻¹ and the on-rate (kon) stood at 124000 M⁻¹ s⁻¹.

B3: Anti-CEA 43 VHH (VHH)
VHH: EVQLVESGGGLVQAGGSLTLSCTSSTLTFTPYRMGWYRQTPGKQRDLVADISPGDGSTKNYAGFAQGRFTISRDNIKNTVYLQMNDLKPEDTAVYYCNTYVAFVGRARTWGQGTQVTVTS
notes: Purified from E. coli periplasm; c-myc tag recognised by mAb 9E10; also called anti-CEA VHH clone 43
With B3, in experiment [3], the binding result is “no binding (tested: 1 to 5 µg/ml)”. Moreover, in experiment [2], the Ka is 9.72e+07 M⁻¹, the Kd is 10.3 nM, the koff was 0.00183 s⁻¹ and the kon stood at 178000 M⁻¹ s⁻¹.

B4: Anti-CEA 25 VHH (VHH)
VHH: EVQLVESGGGLVQAGDSLTLTCTSPTLTFTPYRMGWYRQAPGKQRDLVADISGGDGRTTNYADFAKGRFTISRDNVKNAVYLQMNNLKPEDTAIYYCNTYVAIVGHARSWGQGTQVTVSS
notes: Purified from E. coli periplasm; c-myc tag recognised by mAb 9E10; also called anti-CEA VHH clone 25
In the case of B4, in experiment [3], the binding result is recorded as “no binding (tested: 1 to 5 µg/ml)”. Further, in experiment [2], the Ka amounted to 3.15e+07 M⁻¹, the Kd was 31.7 nM, the koff turned out to be 0.0036 s⁻¹ and the kon was 113000 M⁻¹ s⁻¹.

B5: Anti-CD16 c13 VHH (VHH)
VHH: EVQLVESGGGLVQPGGSLRLSCSFPGSIFSLTMGWYRQAPGKERELVTSATPGGDTNYADFVKGRFTISRDNARSIIYLQMNSLKPEDTAVYYCYARTRNWGTVWGQGTQVTVSS
As to B5, in experiment [4], the Ka came out at 9.4e+06 M⁻¹, the Kd is 101 nM, the koff was 0.00567 s⁻¹ and the association rate constant (kon) worked out at 53000 M⁻¹ s⁻¹.

B6: Anti-CD16 c21 VHH (VHH)
VHH: EVQLVESGGELVQAGGSLRLSCAASGLTFSSYNMGWFRRAPGKEREFVASITWSGRDTFYADSVKGRFTISRDNAKNTVYLQMSSLKPEDTAVYYCAANPWPVAAPRSGTYWGQGTQVTVSS
For B6, in experiment [4], the Ka was determined as 1.03e+08 M⁻¹, the Kd is 9.7 nM, the koff worked out at 0.00279 s⁻¹ and the kon worked out at 286000 M⁻¹ s⁻¹.

B7: Anti-CD16 c72 VHH (VHH)
VHH: EVQLVESGGGLVQPGGSLTLSCVAAGSIFTFAMSWYRQAPRKERELVARIGTDDETMYKDSVKGRFTISRDNVKRTAGLQMNNLKPEDTAVYYCNARTDYRDWTVREYWGQGTQVTVSS
With B7, in experiment [4], the Ka was 1.06e+07 M⁻¹, the dissociation constant (Kd) came to 94.6 nM, the koff was 0.0037 s⁻¹ and the kon worked out at 39000 M⁻¹ s⁻¹.
